Measured values from patent publication US20030022260.

Assays:
[1] = molecular target: GAD-E2F-5/LexA-DP-1 in yeast (Mus musculus) (UniProt Q61502+Q08639); experiment: cell_activity; settings: yeast lacZ reporter
[2] = tested on: HA-E2F-5/DP-1 in cells (Homo sapiens); experiment: cell_activity; settings: U2-OS CAT reporter; E2F-5 plus DP-1

Sequence of GAD-E2F-5/LexA-DP-1 in yeast (Mus musculus) (Q61502 whole entry, chain 1 of 2): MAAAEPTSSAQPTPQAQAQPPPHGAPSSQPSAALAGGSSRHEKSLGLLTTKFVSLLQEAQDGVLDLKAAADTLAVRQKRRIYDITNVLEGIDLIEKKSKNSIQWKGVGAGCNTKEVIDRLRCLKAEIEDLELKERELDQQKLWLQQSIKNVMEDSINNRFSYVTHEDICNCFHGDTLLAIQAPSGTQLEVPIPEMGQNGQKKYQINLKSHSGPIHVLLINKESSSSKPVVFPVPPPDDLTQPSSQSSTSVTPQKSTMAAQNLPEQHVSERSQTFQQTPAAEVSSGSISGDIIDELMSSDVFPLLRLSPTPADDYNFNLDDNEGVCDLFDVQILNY
Sequence of GAD-E2F-5/LexA-DP-1 in yeast (Mus musculus) (Q08639 whole entry, chain 2 of 2): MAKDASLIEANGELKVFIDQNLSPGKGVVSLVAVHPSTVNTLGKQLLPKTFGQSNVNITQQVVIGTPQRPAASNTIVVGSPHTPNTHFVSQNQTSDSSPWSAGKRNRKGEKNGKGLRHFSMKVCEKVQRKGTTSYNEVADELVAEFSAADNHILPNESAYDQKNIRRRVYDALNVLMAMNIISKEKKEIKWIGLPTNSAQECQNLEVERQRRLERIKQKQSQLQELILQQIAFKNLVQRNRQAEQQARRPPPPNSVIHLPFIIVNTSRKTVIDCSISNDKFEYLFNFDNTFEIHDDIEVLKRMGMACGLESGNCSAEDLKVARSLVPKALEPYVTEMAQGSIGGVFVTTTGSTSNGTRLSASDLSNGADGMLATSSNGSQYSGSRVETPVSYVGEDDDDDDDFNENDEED

Substance | activity (fold activation) [1] | activity (fold activation) [2]
p4xWT CYC1 reporter, four wild-type E2F sites | > 6 | –
E2F4-CAT reporter, four E2F sites | – | > 100
